Kd and koff data for 1 substance are collected here from paper PMC8597880.

This assay has as its target recombinant SARS-CoV-2 RBD, Prototype (SARS-CoV-2, prototype) (UniProt P0DTC2). In words: BLI. A general note: In BLI a coated tip is dipped into the sample, and binding shifts an interference pattern.

Turning to NIH-CoVnb-112 (VHH), the Kd was determined as 1.59 nM and the off-rate constant (koff) came out at 0.000236 s⁻¹.

As usually defined, the Kd is a measure of binding affinity in units of concentration. The term koff denotes the first-order rate constant of dissociation.
